Experimental data: patent publication US20220242953A1 (JIANGSU HENGRUI MEDICINE, published 2022)

Columns and labels:
[1] = biological target: T1, human B7H3 on the cell surface (A498, CT26/hB7H3, U87, Detroit562 cells) (human, UniProt Q5ZPR3 29-534); assay: cell-based or functional assay
T1 sequence: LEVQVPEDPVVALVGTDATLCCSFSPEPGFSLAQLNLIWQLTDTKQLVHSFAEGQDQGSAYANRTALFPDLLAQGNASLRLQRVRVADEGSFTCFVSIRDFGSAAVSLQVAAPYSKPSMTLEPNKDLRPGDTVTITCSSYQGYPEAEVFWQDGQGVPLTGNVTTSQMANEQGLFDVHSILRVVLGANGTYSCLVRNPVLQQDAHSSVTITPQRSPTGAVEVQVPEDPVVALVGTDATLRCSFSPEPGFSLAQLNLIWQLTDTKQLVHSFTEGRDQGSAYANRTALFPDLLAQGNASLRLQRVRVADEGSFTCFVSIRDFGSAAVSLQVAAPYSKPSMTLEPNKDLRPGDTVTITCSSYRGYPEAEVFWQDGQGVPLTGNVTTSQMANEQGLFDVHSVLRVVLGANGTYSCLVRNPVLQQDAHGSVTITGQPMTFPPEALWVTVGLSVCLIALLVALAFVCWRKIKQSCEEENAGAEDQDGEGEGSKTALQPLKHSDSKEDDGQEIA

[2] = biological target: T1, human B7H3 on the cell surface (A498, …); assay: FACS on A498 cells expressing human B7H3, APC anti-human IgG Fc detection, geometric mean fluorescence
Method: (§1) The ability of bispecific antibodies to bind to cell surface antigens was detected by FACS method.
(§2) FACS buffer (98% PBS, 2% FBS) was added into a 96-well U-shaped bottom plate (corning, 3795) to resuspend the cells, the serially diluted antibodies were added, incubated at 4° C. for 1 hour, and the plate was washed with FACS buffer twice. Then APC anti-human IgG Fc Antibody (biolegend, Cat #409306, dilution at 1:50) was added into each well, incubated at 4° C. for 30 minutes, washed twice, the cells were resuspended in FACS buffer, and finally the fluorescence signal values were read by FACS CantoII (BD).

[3] = biological target: human CD3 on the cell surface (Jurkat recombinant cells; T cells of PBMC) (human, UniProt P07766 23-207; P04234 22-171); assay: FACS on Jurkat recombinant cells expressing CD3, APC anti-human IgG Fc detection, geometric mean fluorescence
Sequence of human CD3 on the cell surface (Jurkat recombinant cells; T cells of PBMC) (P07766 23-207, chain 1 of 2): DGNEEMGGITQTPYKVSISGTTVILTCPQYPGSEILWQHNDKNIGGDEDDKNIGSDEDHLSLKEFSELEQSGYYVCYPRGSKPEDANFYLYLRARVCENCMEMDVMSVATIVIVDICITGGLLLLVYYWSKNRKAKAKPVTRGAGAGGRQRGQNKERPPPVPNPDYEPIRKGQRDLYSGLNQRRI
Sequence of human CD3 on the cell surface (Jurkat recombinant cells; T cells of PBMC) (P04234 22-171, chain 2 of 2): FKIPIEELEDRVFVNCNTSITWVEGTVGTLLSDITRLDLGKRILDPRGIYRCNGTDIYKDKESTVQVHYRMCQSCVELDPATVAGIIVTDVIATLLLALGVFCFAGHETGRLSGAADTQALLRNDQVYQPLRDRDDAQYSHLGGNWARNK
Method: as §1, §2

[4] = biological target: T2, Human CD3 antigen for detection (SinoBiological cat #CT038-H2508H); human CD3 epsilon-His and human CD3 … (human, UniProt P07766 23-126; P04234 22-105); assay: Biacore T200 SPR, bispecific antibody captured, CD3 antigen as analyte, 1:1 Langmuir fit
T2 construct: Bought antigen
T2 sequence (P07766 other isoform, or with tags, fused parts or gaps H2508H H2508H, chain 1 of 2): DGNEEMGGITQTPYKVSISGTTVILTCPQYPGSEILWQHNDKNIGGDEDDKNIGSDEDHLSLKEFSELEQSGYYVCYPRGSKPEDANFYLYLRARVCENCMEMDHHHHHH
T2 sequence (P04234 other isoform, or with tags, fused parts or gaps H2508H H2508H, chain 2 of 2): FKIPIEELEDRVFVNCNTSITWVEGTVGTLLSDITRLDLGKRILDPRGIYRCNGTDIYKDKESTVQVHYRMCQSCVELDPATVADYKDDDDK
Method: (§3) The detection of antibody affinity to B7H3 and CD3 was performed in the form of capture antibody. BsAb was captured by CM5 biosensor chip (Cat. #BR-1005-30, GE) or Protein A (Cat. #29127556, GE) biosensor chip coupled with Anti-Human IgG Antibody (Cat. #BR-1008-39, Lot. #10260416, GE), and then each antigen flowed through the surface of the chip. The reaction signals were detected in real time with the Biacore T200 instrument to obtain the binding and dissociation curves. After the dissociation of each experimental cycle was completed, the chip was washed and regenerated with regeneration buffer Glycine1.5 (Cat #BR100354, GE) or 3 M MgCl₂ (from Human antibody capture kit, Cat. #BR100839, GE). The data were fitted with the (1:1) Langmuir model using GE Biacore T200 Evaluation version 3.0 software, and the affinity values were obtained.

[5] = biological target: T1, human B7H3 on the cell surface (A498, …); assay: FACS on CT26/hB7H3 cells over-expressing human B7H3, APC anti-human IgG Fc detection, geometric mean fluorescence
Method: as §1, §2

[6] = biological target: T2, Human CD3 antigen for detection …; assay: Biacore T200 SPR, bispecific antibody captured, antigen as analyte, 1:1 Langmuir fit
Method: as §3

[7] = biological target: T3, Monkey CD3 antigen for detection (Acro biosystem cat #CDD-C52W4); monkey CD3 epsilon-His and monkey CD3 … (monkey (cyno), UniProt Q95LI5 22-117; Q95LI8 22-105); assay: as above
T3 construct: Bought antigen
T3 sequence (Q95LI5 other isoform, or with tags, fused parts or gaps mutant, chain 1 of 2): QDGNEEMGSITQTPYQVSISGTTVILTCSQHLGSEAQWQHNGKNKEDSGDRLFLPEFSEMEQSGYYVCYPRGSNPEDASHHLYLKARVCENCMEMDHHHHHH
T3 sequence (Q95LI8 other isoform, or with tags, fused parts or gaps mutant, chain 2 of 2): as the sequence (P04234 other isoform, or with tags, fused parts or gaps H2508H H2508H, chain 2 of 2) above, with I5V, N15K, I20V, S32T, D33N, I34N, T64A, S74N, V83L counted along it
Method: as §3

[8] = biological target: T4, Human B7H3 antigen for detection (SinoBiological cat #11188-H08H) (human, UniProt Q5ZPR3 29-461); assay: as above
T4 construct: Bought antigen
T4 sequence: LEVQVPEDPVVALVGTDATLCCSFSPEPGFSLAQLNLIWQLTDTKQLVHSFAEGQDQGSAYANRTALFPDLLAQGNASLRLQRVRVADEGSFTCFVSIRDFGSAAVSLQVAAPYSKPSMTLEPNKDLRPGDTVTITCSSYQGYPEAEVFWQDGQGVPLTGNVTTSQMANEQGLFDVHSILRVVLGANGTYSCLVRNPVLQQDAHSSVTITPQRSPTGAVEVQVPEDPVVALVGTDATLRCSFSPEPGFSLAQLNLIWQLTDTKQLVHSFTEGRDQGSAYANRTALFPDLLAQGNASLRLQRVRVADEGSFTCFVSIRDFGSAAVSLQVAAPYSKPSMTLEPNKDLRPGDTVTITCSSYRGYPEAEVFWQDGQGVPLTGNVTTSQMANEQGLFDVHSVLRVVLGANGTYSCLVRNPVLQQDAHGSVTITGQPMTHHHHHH
Method: as §3

[9] = biological target: T5, Monkey B7H3 antigen for detection (SinoBiological cat #90806-C08H) (monkey (cyno)); assay: as above
T5 construct: Bought antigen; also called monkey (cyno) B7H3
T5 chain: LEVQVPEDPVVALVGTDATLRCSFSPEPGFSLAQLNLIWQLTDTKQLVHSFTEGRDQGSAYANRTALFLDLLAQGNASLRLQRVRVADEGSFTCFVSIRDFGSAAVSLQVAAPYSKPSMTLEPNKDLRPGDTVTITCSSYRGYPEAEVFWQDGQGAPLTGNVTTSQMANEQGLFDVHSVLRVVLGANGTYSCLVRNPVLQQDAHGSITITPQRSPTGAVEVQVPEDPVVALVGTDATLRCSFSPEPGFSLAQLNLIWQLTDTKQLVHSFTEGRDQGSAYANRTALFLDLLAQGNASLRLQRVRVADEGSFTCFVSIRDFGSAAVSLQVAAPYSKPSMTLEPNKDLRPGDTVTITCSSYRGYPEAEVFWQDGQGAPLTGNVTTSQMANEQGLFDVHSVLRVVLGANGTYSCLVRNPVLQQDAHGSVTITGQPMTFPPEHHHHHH
Method: as §3

B1: NC1 (negative control bispecific antibody; B7H3 binding domain replaced with a non-related antibody, CD3 binding domain retained) (bispecific antibody)
chain 1: not shown
chain 2: DIQMTQSPSSVSASVGDRVTITCRASQDIANYLSWYQQKPGKSPKLLIYGTSNLEVGVPSRFSGSRSGTDFTLTISSLQPEDFATYYCLQDKEFPRTFGGGTKVEIKGGGGSGGGGSGGGGSEVQLVESGGGLVQPGGSLRLSCAASGFTFSHYYMAWVRQAPGKGLEWVTSISYEGDITYYGDSVKGRFTISRDNSKNTLYLQMNSLRAEDTATYYCASQTLRESFDYWGQGTLVTVSSGGGDKTHTCPPCPAPEAAGGPSVFLFPPKPKDTLMISRTPEVTCVVVDVSHEDPEVKFNWYVDGVEVHNAKTKPREEQYNSTYRVVSVLTVLHQDWLNGKEYKCKVSNKALPAPIEKTISKAKGQPREPQVCTLPPSREEMTKNQVSLSCAVKGFYPSDIAVEWESNGQPENNYKTTPPVLDSDGSFFLVSKLTVDKSRWQQGNVFSCSVMHEALHNHYTQKSLSLSPGK
notes: Control arm said to be an anti-fluorescein antibody; CD3 scFv with HRH-3
[1]
  Emax (%), PBMC-mediated killing of A498 cells (B7H3 high): 20.9%
  Emax (%), PBMC-mediated killing of Detroit562 cells (B7H3 low): 0.95%
  Emax (%), PBMC-mediated killing of U87 cells (B7H3 intermediate): 3.8%
  IC50 (nM), PBMC-mediated killing of A498 cells (B7H3 high): > 300 nM
  IC50 (nM), PBMC-mediated killing of Detroit562 cells (B7H3 low): > 300 nM
  IC50 (nM), PBMC-mediated killing of U87 cells (B7H3 intermediate): > 300 nM
[2]
  binding result: no binding (tested: about 5000 nM (log 3.7 on the axis))
[3]
  EC50 (read off the curve): ~70 nM

B2: bispecific antibody 113 (AFF 3-2) (bispecific antibody)
chain 1: not shown
chain 2: QTVVTQEPSFSVSPGGTVTLTCGLSSGSVSTSHYPSWYQQTPGQAPRMLIYNTNTRSSGVPDRFSGSILGNKAALTITGAQADDESDYYCAIHVDRDIWVFGGGTKLTVLGGGGSGGGGSGGGGSQVQLVQSGGGVVQPGTSLRLSCAASGFIFSSSAMHWVRQAPGKGLEWVAVISYDGSNKYYVDSVKGRFTISRDNSKNTLYLQMNSLRAEDTAVYYCARSARLYASFDYWGQGALVTVSSGGGDKTHTCPPCPAPEAAGGPSVFLFPPKPKDTLMISRTPEVTCVVVDVSHEDPEVKFNWYVDGVEVHNAKTKPREEQYNSTYRVVSVLTVLHQDWLNGKEYKCKVSNKALPAPIEKTISKAKGQPREPQVCTLPPSREEMTKNQVSLSCAVKGFYPSDIAVEWESNGQPENNYKTTPPVLDSDGSFFLVSKLTVDKSRWQQGNVFSCSVMHEALHNHYTQKSLSLSPGK
notes: B7H3 bivalent CD3-B7H3 bispecific antibody, CD3 VH HRH-2
[4]
  Kd: 77.2 nM

B3: NC2 (negative control bispecific antibody; B7H3 binding domain retained, CD3 binding domain replaced with a non-related antibody) (bispecific antibody)
chain 1: not shown
chain 2: B2 chain 2
notes: Control arm said to be anti-fluorescein
[2]
  EC50 (read off the curve): ~30 nM
[3]
  binding result: no binding (tested: about 8000 nM (log 3.9 on the axis))
[5]
  EC50 (read off the curve): ~4 nM

B4: bispecific antibody 154 (AFF3-4) (bispecific antibody)
chain 1: not shown
chain 2: B2 chain 2
notes: B7H3 bivalent CD3-B7H3 bispecific antibody, CD3 VH HRH-4
[4]
  Kd: 69.7 nM

B5: bispecific antibody 177 (AFF3-7) (bispecific antibody)
chain 1: not shown
chain 2: B2 chain 2
notes: B7H3 bivalent CD3-B7H3 bispecific antibody, CD3 VH HRH-7
[4]
  Kd: 162 nM

B6: bispecific antibody 131 (AFF3-1) (bispecific antibody)
chain 1: not shown
chain 2: B2 chain 2
notes: B7H3 bivalent CD3-B7H3 bispecific antibody, CD3 VH HRH-1; two-chain knob/hole Fc format
[4]
  Kd: 40.7 nM

B7: MGD009 (positive control bispecific antibody, three chains) (bispecific antibody)
chain 1: DIQLTQSPSFLSASVGDRVTITCKASQNVDTNVAWYQQKPGKAPKALIYSASYRYSGVPSRFSGSGSGTDFTLTISSLQPEDFATYYCQQYNNYPFTFGQGTKLEIKGGGSGGGGEVQLVESGGGLVQPGGSLRLSCAASGFTFSTYAMNWVRQAPGKGLEWVGRIRSKYNNYATYYADSVKDRFTISRDDSKNSLYLQMNSLKTEDTAVYYCVRHGNFGNSYVSWFAYWGQGTLVTVSSGGCGGGEVAALEKEVAALEKEVAALEKEVAALEKGGGDKTHTCPPCPAPEAAGGPSVFLFPPKPKDTLMISRTPEVTCVVVDVSHEDPEVKFNWYVDGVEVHNAKTKPREEQYNSTYRVVSVLTVLHQDWLNGKEYKCKVSNKALPAPIEKTISKAKGQPREPQVYTLPPSREEMTKNQVSLWCLVKGFYPSDIAVEWESNGQPENNYKTTPPVLDSDGSFFLYSKLTVDKSRWQQGNVFSCSVMHEALHNHYTQKSLSLSPGK
chain 2: QAVVTQEPSLTVSPGGTVTLTCRSSTGAVTTSNYANWVQQKPGQAPRGLIGGTNKRAPWTPARFSGSLLGGKAALTITGAQAEDEADYYCALWYSNLWVFGGGTKLTVLGGGGSGGGGEVQLVESGGGLVQPGGSLRLSCAASGFTFSSFGMHWVRQAPGKGLEWVAYISSDSSAIYYADTVKGRFTISRDNAKNSLYLQMNSLRDEDTAVYYCGRGRENIYYGSRLDYWGQGTTVTVSSGGCGGGKVAALKEKVAALKEKVAALKEKVAALKE
chain 3: not shown
notes: B7H3 monovalent B7H3xCD3 DART-Fc
[6]
  Kd: 78.1 nM
[7]
  Kd: 4.94 nM
[8]
  Kd: 1.96 nM
[9]
  Kd: 2.65 nM
[3]
  EC50 (read off the curve): ~100 nM
[5]
  EC50 (read off the curve): ~10 nM
